Test: soluble fraction after stress (log2 fold change); higher = more stays soluble; pooled small domains, quantitative proteomics
Details: stress: 75 degC
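Also: 20 min heating vs room temperature control held 20 min.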

Row | Sequence | soluble fraction (log2)
1 | HMKSLPQKLLAYLESQGLTRDEAGEFVKQGLKITSNDVDQIQLLLANTEVIDIKLQEFIAQK | 0.0281
2 | HMKSLVDLEISIVKKDMNYFVLPKINGEPLLMERISASEYKDFQLGKLSKEDIFQKHYPDYSEENIKNGRG | -0.671
3 | HMKSSISKNWNPSKDAIEILTRAGIDQEFLENLIPEFVIYWIERSDVLISYNSKFIEHARLKWAQHTAEIQ | 0.192
4 | HMKSTPMYATAIVNIRSKAGTDSEILGKLNPSEEISVISSENGWSKVSYNGKEAYISSNYLSNAKP | -0.0974
5 | HMKSVFQPIYEDLLSRIQDGRLLPGMPLPSENALAVQYGTSRPTIRRAIGLLVEKSLVIRQPGIGSIVAS | -1.32
6 | HMKTALQENVRAYRLERKWTQQALAEALEVSVGAVSKWESGVSRPELETLMRLAELFGVSTDALLGF | -2.33
7 | HMKTAWDELNEVIEAYRGQESALIEVLHKAQEIMGYLPRDVQEAIAEGLHVPLNKVYGVVSFYHHFSV | 0.449
8 | HMKTERTVRVQDQHLHYTLEEKPIKNVNLRIRPDGSVYVSAPFGTSRTLIDDFVASKSKQILAIQQAQSAM | -0.277
9 | HMKTGIGIVEANGGLRLRSQASTSSDVLSTAHNGDNVVVIRQVGNWYLVNYNLKIGYMHSDYITFKE | -5.04
10 | HMKTGNIIAVSLVWKGKYYMIRMFFPSAARPSRADVQTEIEKVYPGSKLSSFSVSDYEPGQPLLQV | -3.05
11 | HMKTGTTGLIGEIGVVKKALTPEGKVFVHGELWRAVSKTASPEGTLVQVIKINNLVLEVEKV | -2.98
12 | HMKTILEKDQRLAKYISYLIKRKRLSPEQVIEHLKTDDHGYEKYPKSINTIYAAIDKGLIPSVTRQDM | -0.509
13 | HMKTKMTPELTTVIEAQIQKEWSPEQISGWLKKTHPVSVSHQRIYQHIQADRQQGGTLHQHLRQAK | 0.00699
14 | HMKTKTFSPGEIVKIQTRDKSWQGTILESHDPEIILLKLTTGYNIGIRENEIINAKVIEKSKKDVKDAE | 0.258
15 | HMKTKTIMSTGAREDLVKMINEYYYSKNYIITEDNRIYNTKTEKFMDDLSVKFYRGRWKVIRN | -0.852
16 | HMKTLDATQRLKLNGEGIIVFNFGKYVDQPVVEIFKKERGYFAWMMSKDFSQQVKNIITKIHNEEILGK | -3.01
17 | HMKTLKHYFASIAHEFGREEAELMLLSVFKTPFEQRLMLFMKDPALTEAQVQQLDNLVRQRKQGVPLPYIL | -2.68
18 | HMKTLPADPTVKNFSYTVVDGEIYYRENSIMTQIELSDNAKGRVAGMVELRQIVNELIDQQLND | -0.849
19 | HMKTMEQSYIGRKIILDENVEDSALIKFEGIYWTFKSVSGPLKKGTEVEIIGIEGNKILIKNK | -0.988
20 | HMKTPIEFGSVYNDPVRYVIGMSIKSAESINQAIYDMMKIFGDENNMNKFDSLPDEQAVLDMVNSF | 0.0725
21 | HMKTRIQDLRKELGVTQSELADAVDVTRQTIISLEGGRYKASLVLAHKLAQFFHVTIEELFIFD | -2.32
22 | HMKTRNISGNHEAVWQAVRSRTQAGHPTTRAVIMDDLKAQGLNTQKFSRWLKKLVDDGSVYMDGDTIIMGK | -0.306
23 | HMKTRTVVLKSAGGNKIAVIKIIKEITGLGLVEAKAVADNGGNIKENIPAEEAEAIKTQLTEAGAEVEL | -0.664
24 | HMKTRYPNVYQDEKGKFFYQIFIGTDTNGRKKLKKGRRDALGHPFSSAYQASKEAKRVQALYANVS | -2.02

Row | Sequence | soluble fraction (log2)
25 | HMKTSTGSAMYLTLDLAEKYAGQAFTLVHKKADGTFEYLYATADVDGKVKFGPVYELSPFMLVKGQL | -1.66
26 | HMKTSVGSKMMVMANNLSIRKSANLLSEKLADLSKGDMVEYISSTNGWNKVRYNGYVGYVSSYYLKDTGEV | -2.21
27 | HMKTTKDSVFEYIQKELMTNEEYKQGINTNVIAQHFGLQRSNISTILNELVKEDRLEKTNTRPVLYFLPQ | -0.208
28 | HMKTTKRERARAKLIQLLENEDRPAKEIYAGLGDIGVGSRTVEKVKKELQVTTYRSGGSWYWSLPKP | -0.525
29 | HMKTVKPSQIPYSEFLKLVETDKINDVSMVGRNIIGHLDDGSKFKTYTPPNDPTLIEKLSSHNIVINAAPE | 0.0923
30 | HMKTVLDSLLRILDSKELDIVVLRHIVGLTLTEIAKEKDMKKGTVFWMYNRAVKKLRLESERMGL | -2.13
31 | HMKTVPNVEGEKDGTAQSAIESAGLKVGKVTYQYDDNTSKGLVISQSVKGGEKVKPNTAIDLVVSNGPK | -0.117
32 | HMKTYSEAQLKIALESLIENGKKQGYLTFQEINEILPDGIINTQDLKVIISILKETGIVVAKEKPEINIDV | 0.0761
33 | HMKVEFTPAYLKKFKANKNAWKFYEAQTNTYKKQSAWYVISAKQEETRLRRLDLLIYDSENGIHIKPLRR | -2.74
34 | HMKVFTEDEMLEKIKEYLSTNSYINRRVMETQFGLRQNIALKWLKHFTEIGVLRKEGERNSPIYFLNN | -0.356
35 | HMKVKIFNGMKLVTNSTGLTVDGKPAALDESNADAKTYSQGLYVFIVYQSGKIAVMQDGKFLGYA | -3.34
36 | HMKVLNVLESEIVRLFKQGQQKDNIRDNIYKTHGQHYNNKKSFNVVFGRKWNSLLEQGFLES | -1.23
37 | HMKVRDTQYIIEAAISKNVIRKSKNIYYYGTDIIGRSLEDAIASLNDKKNQDIKMTILQEIES | -2.14
38 | HMKVSKNKIVKGMGFHHVALKAVDFDASFKFYTEGLGMKFYTSWGEGNGKIAMLDLGDGGILELFA | 0.0409
39 | HMKVTGITDDILQRLKQQKGYLMLSDKSSPDEIYAAFGVSKKVFKQAIGTLFKQRQIIIEEQGIRLAN | -1.3
40 | HMKVTQDIIFKRNGEEIKSKVLEITPDLIIYIDYSRADNIAREINISEVNMIIYKNGTSEIFSRPEE | -1.69
41 | HMKVTTGIDGLIGEEGVALSDFSGKGKIMVHGEIWNAEFSGEVKKGEVLLVEKANGMTLITRKKN | ≥ 1.04
42 | HMKYKWLAGQLRRELLENGGKKGYKLPTELELARRYQLSRQTVRRALQLLEEEGLILRRQGSGAYATGKPP | -0.729
43 | HMKYLREEDYLPIGSIIRLDDRNFRVDHVNFMFKSVSLQDMDLTNSGQPIFRSESLPHIRELYEQQQNELV | -0.877
44 | HMKYYIYQGLGDSGELTKIAEVTDVKTYTATGLEANTKYRFAVSAYNGLRESSKSNIITVTT | 0.0116
45 | HMLADIGGRIADLRREVGLTQGELAEKADISVVHLSNIELGKKTPGLSTLIRIAEALDVATDWILQA | -1.38
46 | HMLAFDKDDSGAVAEIILVLGRYWMDFSHKKYPAAEGVALRHKGLSHIFTVLRPYLSTPASELIGERLRR | -0.0618
47 | HMLAGVDTLADRELEVFQMLGRGKSTKEIAQVLNLGESTVETYRARIKEKLQLRSAAELYLRAGQWVRDHG | -1.09
48 | HMLAIKKGGIFAILGPNGSGKSTFSKVLAGHPAYTVVDGDIFFKGLSILDLEPEERSHLGIFLAFQ | -0.286

Row | Sequence | soluble fraction (log2)
49 | HMLAKRYLVYGSGSLNSAYPDTKNIAYGIDSGKGFFLVGILTENEASKLKLKGYYVIEDFPLDFH | -1.45
50 | HMLAPLAEMRGDTLDRLEKAVLELFSSRDFHEVSLQDVARRANVSLQTIYKYFGSKEALVYTMLDTLLGR | -0.416
51 | HMLAQVSDEGPIRAMVEAVMARSTQQLEDYKNGKVKLRQYFFGEVMKAAKGKANPTVINKLLDEMLPETL | -0.314
52 | HMLAQYPGQVFSKEQIYNQVWKEPYYGVEDNVMSLIRRIRKKIEPDPSRPIYILTVWGIGYKFNN | 0.0812
53 | HMLARFSGIALNTWTQADVERTFGPPMLVERVARFDGDIWTYRFMDDYEPRMAHIHIDRAGTVRQLVF | -2.86
54 | HMLAVEKIEFVGNERIAAADLESALSALYDRPMTTISDDEIAKLLSGFSLIETFTSQAEPPHTLRVNIRE | 0.083
55 | HMLDEKFLSELMLALLRNHRRGLRAEVLLHKVRSNMELDGYKSLLVGVGRMEMWELAREIIDFVKAEG | -4.4
56 | HMLDGFEVGMTVMRKPGTETGFTGWPPFADKDEFPVIERIDTSDSTLLLRFNDTSWWINASLVEPSDV | -2.19
57 | HMLDIPEVGQAVQVRGRLGTVFSVAPYDGREGRLHLVTVDYLDDARPPENDEILWEIESGARILG | -0.698
58 | HMLDLNEVEFYAIENQLKENLKIDSKRFYELVPLIKGYQEDDIIQVLRWLIDNNRIIRHKDESLTWHS | -1.68
59 | HMLDLSEEEQKIVSILEKQGNLQINSLVVEADIPVHKINAILFELEMKGVVRVLALSLIHISEP | 0.149
60 | HMLDPVLQREKDESFTDYHIRLFKNKDTYHIDTKTIATLLNKDQGTNYDESKWRKDFKQYERWNDYIMSKN | 0.116
61 | HMLDPYNVLGVPRDAGMDEIKKAYRKLSRTYHPDANIDNPNKAQAEEKFKQIQEAYQQIVKERTE | -0.0272
62 | HMLDQAVPVFETPKYAVSYIQNRLVEMKAASPEEAASRFYESISESERRGLFEALLIKEAEES | 0.0105
63 | HMLDQGTQSRYQIMDGVRALITGDWSSHGAGLVRELSQEVARTSGLTATSERTFFVPFSALS | 0.00593
64 | HMLDSDARRRGLIEYLSLNGYATMRQLAGEFDVSINTIQRDITYLARYYPLETAYGRYGGGVYFEQNWQ | -1.44
65 | HMLDSGNPILPYKLSLLANVDIRTVRNAISAGELVAFKSEFDGEVYVENGSARRWLHGRRGFKPTLK | -2.56
66 | HMLDSNILTLIKELKIRHHFTATQTHQLEKVIQQAHALGLDNSEIRSLANSSPSAKSLINDLNQKLEPLRL | -1.44
67 | HMLDTELEANLRSQRDQKLVEELDPIVTNPLRWAELTSDKQTEWTQYRTDLLNVPQQSGFPTNVTWPEKP | 0.216
68 | HMLDVFSAEQVADVLSVSKRNLETWANNGKLIPDFIHGEVALYSKKQLEQFEQFQRFFNSSWDAERLIQP | -1.54
69 | HMLDVGDQLVKKLKDNDSLDFHFVNSKEANKGLKDGDYYMVITIPSNFSKNATTLLDKNPKKMVLNYTTNP | -0.0273
70 | HMLEAKQIQDNWESLIKLIEDNFTGERKENLLKMYTHFQDRMMFAPASSKEHFHNAFPGGYVEHVL | -0.369

— the domain aggregation screens of Martell et al. (2025)
